{
  "source": "patent US20090142855A1",
  "about": "(published 2009)",
  "target": "T1, human IL12RB1 Fc fusion protein (human, UniProt P42701 24-545)",
  "T1 construct": "Purchased from R & D systems; Coated on the ELISA plate; also called human IL-12RB1 receptor subunit; human IL12 receptor; not shown: Fc part of the purchased fusion protein (R & D systems)",
  "assay": "ELISA, receptor-Fc coated on plate, titration of cytokine, detection with anti-human p40 monoclonal antibodies",
  "description": "To test whether cynomolgus IL-23 binds to the human IL23 receptor (“IL23R”), and whether cynomolgus IL-12 binds to the human IL12 receptor (“IL12RB1”), human IL23R Fc and human IL12RB1 Fc fusion proteins were purchased (R & D systems) for an ELISA assay. To capture IL23R Fc fusion protein, 500 ng of IL23R—Fc protein in 100 μl of PBS (pH 7.4) was put onto a 96-well Maxisorb plate (NUNC, Rochester, N.Y.) and incubated overnight at 4° C. Likewise, to capture IL12RB1 Fc fusion protein, 500 ng of IL12RB1 Fe protein in 100 μl of PBS (pH 7.4) was put onto a 96-well Maxisorb plate (NUNC, Rochester, N.Y.) and incubated overnight at 4° C. For each, the capture solution was thrown away after overnight incubation and the plate was washed with 200 μl per well of TBST (25 mM Tris-HCl pH 7.5, 150 mM NaCl and 0.01% Tween 20) three times. The plate was then blocked with 200 μl per well of TBST containing 5% nonfat dry milk for 30 minutes at room temperature. After blocking, the plate was washed 3 times with 200 μl per well of TBST at room temperature and a titration of cynoIL23 or cynoIL12 in PBS was added to the plate and incubated at room temperature for 1 hour. […] A 100 μl solution containing 2 NH₂SO₄ was added to stop the reaction and the plate was read on a 96 well SpectroMax plate reader at 450 nm.",
  "data": [
    {"binder": "cynomolgus IL-12 (single chain: cyno p40 - 2 bovine elastin motifs - cyno p35) (ligand, expressed in 293F cells and purified from the supernatant, about 95% pure; Any vector-derived residues at the junctions or a signal peptide are not described; also called cynoIL12; cyno IL-12) IWELKKDVYVVELDWYPDAPGEMVVLTCDTPEEDGITWTLDQSGEVLGSGKTLTIQVKEFGDAGQYTCHKGGEALSHSLLLLHKKEDGIWSTDVLKDQKEPKNKTFLRCEAKNYSGRFTCWWLTTISTDLTFSVKSSRGSSNPQGVTCGAVTLSAERVRGDNKEYEYSVECQEDSACPAAEERLPIEVMVDAIHKLKYENYTSSFFIRDIIKPDPPKNLQLKPLKNSRQVEVSWEYPDTWSTPHSYFSLTFCIQVQGKSKREKKDRIFTDKTSATVICRKNASFSVQAQDRYYSSSWSEWASVPCSVPGVGVPGVGRNLSVATPGPEMFPCLHHSQNLLKAASNTLQKARQILEFYPCTSEEIDHEDITKDKTSTVEACLPLELIKNESCLNSRETSFITNGSCLASRKTSFMMALCLRSIYEDLKMYQVEFKTMNAKLLRDPKRQIFLDQNILGVIDELMQALNFNSETVPQKSSLEEPDFYKTKIKLCILLHAFRIRAVTIDRVMSYLNAS", "values": [
      {"measurement": "binding result", "value": "binds"}
    ]}
  ]
}
